Experiment [1] deals with T1, TWEAK (human, UniProt O43508 94-249, limits assumed).
T1 construct: The assay paragraph says only 'TWEAK'; also called human TWEAK; TNF-related weak inducer of apoptosis
T1 sequence (looked up): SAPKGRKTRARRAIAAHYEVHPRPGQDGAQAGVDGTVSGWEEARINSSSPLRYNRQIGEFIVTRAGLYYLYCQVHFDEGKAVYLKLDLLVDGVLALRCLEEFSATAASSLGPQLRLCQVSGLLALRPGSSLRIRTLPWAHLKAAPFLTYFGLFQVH
Briefly: SPR Biacore T200 25 C, apparent KD, TWEAK amine-coupled on C1 chip, antibody as analyte.

For experiment [2], the target named is T2, human IL17 (human, UniProt Q16552 24-155).
T2 construct: Used as analyte in solution; also called IL17-A
T2 sequence (looked up): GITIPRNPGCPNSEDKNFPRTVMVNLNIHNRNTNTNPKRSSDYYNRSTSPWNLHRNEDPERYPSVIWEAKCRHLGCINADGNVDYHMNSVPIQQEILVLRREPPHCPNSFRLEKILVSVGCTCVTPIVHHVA
Briefly: SPR Biacore T200 25 C, antibody captured via anti-human F(ab')2, human IL17 as analyte, 1:1 Langmuir. The method, then:
Around 6000 resonance units (RU) of the capturing system (15 μg/ml goat anti human F(ab′)2; Order Code: 28958325; GE Healthcare Bio-Sciences AB, Schweden) were coupled on a CM5 chip at pH 5.0 by using an amine coupling kit supplied by the GE Healthcare. The sample and system buffer was PBS-T (10 mM phosphate buffered saline including 0.05% Tween 20) pH 7.4. The bispecific antibody was captured by injecting a 50 nM solution for 90 sec at a flow of 10 μl/min. Association was measured by injection human IL17 in various concentrations in solution for 3 min at a flow of 30 μl/min starting with 50 nM in 1:1 serial dilutions. The dissociation phase was monitored for up to 10 min and triggered by switching from the sample solution to running buffer. The surface was regenerated twice by 60 sec wash with a 10 mM glycine pH 2.1 solution at a flow rate of 30 μl/min. Bulk refractive index differences were corrected by subtracting the response obtained from a goat anti human F(ab′)2 surface. Blank injections are also subtracted (=double referencing). For calculation of apparent KD and other kinetic parameters, the Langmuir 1:1 model was used.
Background: In SPR one partner is held on a chip, and binding of the other changes the refractive index at the surface.

Data on three molecules can be found in patent US20170349669A1 (Hoffmann-La Roche, published 2017).

B1: TweakIL17_101 (bispecific antibody, human IgG4 S228P, kappa)
heavy 1: DIQMTQSPSSVSASVGDRVTITCQASQNIYSNLAWYQQKPGKAPKLLIYTASYLASGVPSRFSGSGSGTDYTLTISSLQPEDFATYYCQTAYYNSRPDTVAFGGGTKVEIKRTVAAPSVFIFPPSDEQLKSGTASVVCLLNNFYPREAKVQWKVDNALQSGNSQESVTEQDSKDSTYSLSSTLTLSKADYEKHKVYACEVTHQGLSSPVTKSFNRGECPPCPPCPAPEFEGGPSVFLFPPKPKDTLMISRTPEVTCVVVDVSQEDPEVQFNWYVDGVEVHNAKTKPREEQFNSTYRVVSVLTVLHQDWLNGKEYKCKVSNKGLPSSIEKTISKAKGQPREPQVYTLPPCQEEMTKNQVSLWCLVKGFYPSDIAVEWESNGQPENNYKTTPPVLDSDGSFFLYSRLTVDKSRWQEGNVFSCSVMHEALHNHYTQKSLSLSL
light 1: QVQLVQSGAEVKKPGSSVKVSCKASGFDFSTYYMSWVRQAPGQGLEWMGTVYVRQGTTYYASWLNGRVTITADESTSTAYMELSSLRSEDTAVYYCARGGYNYDDAFVIWGQGTLVTVSSASTKGPSVFPLAPCSRSTSESTAALGCLVKDYFPEPVTVSWNSGALTSGVHTFPAVLQSSGLYSLSSVVTVPSSSLGTKTYTCNVDHKPSNTKVDKRVESKYG
heavy 2: EVQLVESGGGLVQPGGSLRLSCAASGFSLDSYGVHWVRQATGKGLEWVSVIWSDGTTTYNSALKSRFTISRENAKNSLYLQMNSLRAGDTAVYYCARDTHYRLYYYAMDYWGQGTTVTVSSASTKGPSVFPLAPCSRSTSESTAALGCLVKDYFPEPVTVSWNSGALTSGVHTFPAVLQSSGLYSLSSVVTVPSSSLGTKTYTCNVDHKPSNTKVDKRVESKYGPPCPPCPAPEFEGGPSVFLFPPKPKDTLMISRTPEVTCVVVDVSQEDPEVQFNWYVDGVEVHNAKTKPREEQFNSTYRVVSVLTVLHQDWLNGKEYKCKVSNKGLPSSIEKTISKAKGQPREPQVCTLPPSQEEMTKNQVSLSCAVKGFYPSDIAVEWESNGQPENNYKTTPPVLDSDGSFFLVSRLTVDKSRWQEGNVFSCSVMHEALHNHYTQKSLSLSL
light 2: DIVMTQSPLSLPVTPGEPASISCRSSQSLVHSNGDTYFHWYLQKPGQSPQLLIYKVSNRFSGVPDRFSGSGSGTDFTLKISRVEAEDVGVYYCSQTTHAPFTFGQGTKLEIKRTVAAPSVFIFPPSDEQLKSGTASVVCLLNNFYPREAKVQWKVDNALQSGNSQESVTEQDSKDSTYSLSSTLTLSKADYEKHKVYACEVTHQGLSSPVTKSFNRGEC
notes: also called TweakIL17_101 (wt); TweakIL17_0101
As to B1, the Kd was under 0.1 nM in experiment [1] and 0.1 nM in experiment [2].

B2: TweakIL17_0128 (bispecific antibody, human IgG4 S228P, kappa)
heavy 1: DIQMTQSPSSVSASVGDRVTITCQASQNIYSNLAWYQEKPGKAPKLLIYTASYLASGVPSRFSGSGSGTDYTLTISSLQPEDFATYYCQTAYYNSRPDTVAFGGGTKVEIKRTVAAPSVFIFPPSDEELKSGTASVVCLLNNFYPREAKVQWKVDNALQSGNSQESVTEQDSKDSTYSLSSTLTLSKADYEKHKVYACEVTHQGLSSPVTKSFNRGECPPCPPCPAPEFEGGPSVFLFPPKPKDTLMISRTPEVTCVVVDVSQEDPEVQFNWYVDGVEVHNAKTKPREEQFNSTYRVVSVLTVLHQDWLNGKEYKCKVSNKGLPSSIEKTISKAKGQPREPQVYTLPPCQEEMTKNQVSLWCLVKGFYPSDIAVEWESNGQPENNYKTTPPVLDSDGSFFLYSRLTVDKSRWQEGNVFSCSVMHEALHNHYTQKSLSLSL
light 1: QVQLVQSGAEVKKPGSSVKVSCKASGFDFSTYYMSWVRKAPGQGLEWMGTVYVRQGTTYYASWLNGRVTITADESTSTAYMELSSLRSEDTAVYYCARGGYNYDDAFVIWGQGTLVTVSSASTKGPSVFPLAPCSRSTSESTAALGCLVKDYFPEPVTVSWNSGALTSGVHTFPAVLQSSGLYSLSSVVTVPSSSLGTKTYTCNVDHKPSNTKVDKRVESKYG
heavy 2: EVQLVESGGGLVQPGGSLRLSCAASGFSLDSYGVHWVREATGKGLEWVSVIWSDGTTTYNSALKSRFTISRENAKNSLYLQMNSLRAGDTAVYYCARDTHYRLYYYAMDYWGQGTTVTVSSASTKGPSVFPLAPCSRSTSESTAALGCLVEDYFPEPVTVSWNSGALTSGVHTFPAVLQSSGLYSLSSVVTVPSSSLGTKTYTCNVDHKPSNTKVDERVESKYGPPCPPCPAPEFEGGPSVFLFPPKPKDTLMISRTPEVTCVVVDVSQEDPEVQFNWYVDGVEVHNAKTKPREEQFNSTYRVVSVLTVLHQDWLNGKEYKCKVSNKGLPSSIEKTISKAKGQPREPQVCTLPPSQEEMTKNQVSLSCAVKGFYPSDIAVEWESNGQPENNYKTTPPVLDSDGSFFLVSRLTVDKSRWQEGNVFSCSVMHEALHNHYTQKSLSLSL
light 2: DIVMTQSPLSLPVTPGEPASISCRSSQSLVHSNGDTYFHWYLKKPGQSPQLLIYKVSNRFSGVPDRFSGSGSGTDFTLKISRVEAEDVGVYYCSQTTHAPFTFGQGTKLEIKRTVAAPSVFIFPPSDKKLKSGTASVVCLLNNFYPREAKVQWKVDNALQSGNSQESVTEQDSKDSTYSLSSTLTLSKADYEKHKVYACEVTHQGLSSPVTKSFNRGEC
notes: also called TweakIL17_128
In the case of B2, the Kd in experiment [1] is under 0.1 nM; in experiment [2] it was 0.1 nM.

B3: TweakIL17_103 (bispecific antibody, human IgG4 S228P, kappa)
heavy 1: DIQMTQSPSSVSASVGDRVTITCQASQNIYSNLAWYQQKPGKAPKLLIYTASYLASGVPSRFSGSGSGTDYTLTISSLQPEDFATYYCQTAYYNSRPDTVAFGGGTKVEIKRTVAAPSVFIFPPSDEELKSGTASVVCLLNNFYPREAKVQWKVDNALQSGNSQESVTEQDSKDSTYSLSSTLTLSKADYEKHKVYACEVTHQGLSSPVTKSFNRGECPPCPPCPAPEFEGGPSVFLFPPKPKDTLMISRTPEVTCVVVDVSQEDPEVQFNWYVDGVEVHNAKTKPREEQFNSTYRVVSVLTVLHQDWLNGKEYKCKVSNKGLPSSIEKTISKAKGQPREPQVYTLPPCQEEMTKNQVSLWCLVKGFYPSDIAVEWESNGQPENNYKTTPPVLDSDGSFFLYSRLTVDKSRWQEGNVFSCSVMHEALHNHYTQKSLSLSL
light 1: QVQLVQSGAEVKKPGSSVKVSCKASGFDFSTYYMSWVRQAPGQGLEWMGTVYVRQGTTYYASWLNGRVTITADESTSTAYMELSSLRSEDTAVYYCARGGYNYDDAFVIWGQGTLVTVSSASTKGPSVFPLAPCSRSTSESTAALGCLVKDYFPEPVTVSWNSGALTSGVHTFPAVLQSSGLYSLSSVVTVPSSSLGTKTYTCNVDHKPSNTKVDKRVESKYG
heavy 2: EVQLVESGGGLVQPGGSLRLSCAASGFSLDSYGVHWVRQATGKGLEWVSVIWSDGTTTYNSALKSRFTISRENAKNSLYLQMNSLRAGDTAVYYCARDTHYRLYYYAMDYWGQGTTVTVSSASTKGPSVFPLAPCSRSTSESTAALGCLVEDYFPEPVTVSWNSGALTSGVHTFPAVLQSSGLYSLSSVVTVPSSSLGTKTYTCNVDHKPSNTKVDERVESKYGPPCPPCPAPEFEGGPSVFLFPPKPKDTLMISRTPEVTCVVVDVSQEDPEVQFNWYVDGVEVHNAKTKPREEQFNSTYRVVSVLTVLHQDWLNGKEYKCKVSNKGLPSSIEKTISKAKGQPREPQVCTLPPSQEEMTKNQVSLSCAVKGFYPSDIAVEWESNGQPENNYKTTPPVLDSDGSFFLVSRLTVDKSRWQEGNVFSCSVMHEALHNHYTQKSLSLSL
light 2: DIVMTQSPLSLPVTPGEPASISCRSSQSLVHSNGDTYFHWYLQKPGQSPQLLIYKVSNRFSGVPDRFSGSGSGTDFTLKISRVEAEDVGVYYCSQTTHAPFTFGQGTKLEIKRTVAAPSVFIFPPSDKKLKSGTASVVCLLNNFYPREAKVQWKVDNALQSGNSQESVTEQDSKDSTYSLSSTLTLSKADYEKHKVYACEVTHQGLSSPVTKSFNRGEC
notes: also called TweakIL17_0103
With B3, the Kd in experiment [1] was under 0.1 nM; in experiment [2], 0.1 nM.
